Assay results reported in patent US20200354406A1 (Bicycle, published 2020).
Starred links: 1 amine or outer side, 2 acyl side, 3 side chain; linkers in the order of their positions; H or OH if unused. Positions of bridges follow the written chain, without caps; N, C: chain ends. Non-standard residues stand in square brackets, D forms with d. Chains are numbered I, II in the order given. No end group written: not given here. *: point of attachment. TATA = O=C(CC[*:1])N1CN(C(=O)CC[*:2])CN(C(=O)CC[*:3])C1; 1Nal = N[C@@H](Cc1cccc2ccccc12)C(=O)O; Hyp = O=C(O)[C@@H]1C[C@@H](O)CN1; hArg = N=C(N)NCCCC[C@H](N)C(=O)O; Pent4ynoyl = C#CCCC(=O)*

T1: OX40 on OX40 Jurkat reporter cells (Promega CS197704) (UniProt P43489 29-277, limits assumed)
T1 sequence (looked up): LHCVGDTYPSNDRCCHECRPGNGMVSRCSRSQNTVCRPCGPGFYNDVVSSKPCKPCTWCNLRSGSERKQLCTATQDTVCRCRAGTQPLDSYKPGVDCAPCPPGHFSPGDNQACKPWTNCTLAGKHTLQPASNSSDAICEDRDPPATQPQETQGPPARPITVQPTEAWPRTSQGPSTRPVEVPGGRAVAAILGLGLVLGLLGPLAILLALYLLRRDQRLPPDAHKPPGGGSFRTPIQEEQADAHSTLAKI


How the values were obtained:
Test in all cases: cell-based or functional assay
[1] = target: T1, OX40 on OX40 Jurkat reporter cells …
[2] = target: T1, OX40 on OX40 Jurkat reporter cells …; remark: listed apart in the source
[3] = target: T1, OX40 on OX40 Jurkat reporter cells …; remark: listed apart in the source

Binder | agonism in the Promega OX40 cell-activity assay relative to BCY10549 bound to streptavidin [1] | EC50 (nM), Promega OX40 cell-activity assay (NF-κB luciferase in OX40 Jurkat cells) [2] | EC50 (nM), Promega OX40 cell-activity assay in co-culture with Nectin-4 positive 4T1-D02 tumor cells [3]
ACLYSPCWHPLNDCAK (linker 2-7-14 via TATA; not fully specified (residue 16); also: tetramer: four BCY11607 monomers clicked via S1A to central hinge A (TET)) | ~10 fold | 2.6 nM | 
BCY12721, Nectin-4:OX40 heterotandem (taken as BCY12708 [Ac-A-(SEQ ID NO: 6)-A-K(Pya)] with a PEG5 derivative of BCY8116) (linker I:2-I:7-I:14, II:1-II:5-II:15 via TATA; not fully specified; also: heterotandem: chain 1 Lys(Pya) linked to PEG5 derivative of chain 2) peptide 1: Ac-ACLYSPCWHPLNDCAK(Pent4ynoyl) peptide 2: CP[1Nal][dD]CM[hArg]DWSTP[Hyp]WC |  |  | 0.94 nM
BCY12967, Nectin-4:OX40 heterotandem of a trifunctional PEG3 derivative of BCY8116 and BCY11607 (linker I:2-I:7-I:14, II:1-II:5-II:15 via TATA; not fully specified (bridges); also: two copies of chain 1 (BCY11607) clicked via Lys(Pya) to the trifunctional PEG3 linker) peptide 1: ACLYSPCWHPLNDCAK(Pent4ynoyl) peptide 2: CP[1Nal][dD]CM[hArg]DWSTP[Hyp]WC |  |  | 0.83 nM
BCY12141, Nectin-4:OX40 heterotandem of BCY11607 [A-(SEQ ID NO: 6)-A-K(Pya)] and BCY8116-PEG12-N3 (linker I:2-I:7-I:14, II:1-II:5-II:15 via TATA; not fully specified (bridges); also: PEG12 linker attached to chain 2, place not given here) peptide 1: ACLYSPCWHPLNDCAK(Pent4ynoyl) peptide 2: CP[1Nal][dD]CM[hArg]DWSTP[Hyp]WC |  |  | 0.59 nM
